Results on three variants are retold here after IntAct's records for PubMed 22668317.

The chains are these.
B1: LPS-assembly protein LptD (Escherichia coli (strain K12)), P31554 (parent)
chain: MKKRIPTLLATMIATALYSQQGLAADLASQCMLGVPSYDRPLVQGDTNDLPVTINADHAKGDYPDDAVFTGSVDIMQGNSRLQADEVQLHQKEAPGQPEPVRTVDALGNVHYDDNQVILKGPKGWANLNTKDTNVWEGDYQMVGRQGRGKADLMKQRGENRYTILDNGSFTSCLPGSDTWSVVGSEIIHDREEQVAEIWNARFKVGPVPIFYSPYLQLPVGDKRRSGFLIPNAKYTTTNYFEFYLPYYWNIAPNMDATITPHYMHRRGNIMWENEFRYLSQAGAGLMELDYLPSDKVYEDEHPNDDSSRRWLFYWNHSGVMDQVWRFNVDYTKVSDPSYFNDFDNKYGSSTDGYATQKFSVGYAVQNFNATVSTKQFQVFSEQNTSSYSAEPQLDVNYYQNDVGPFDTRIYGQAVHFVNTRDDMPEATRVHLEPTINLPLSNNWGSINTEAKLLATHYQQTNLDWYNSRNTTKLDESVNRVMPQFKVDGKMVFERDMEMLAPGYTQTLEPRAQYLYVPYRDQSDIYNYDSSLLQSDYSGLFRDRTYGGLDRIASANQVTTGVTSRIYDDAAVERFNISVGQIYYFTESRTGDDNITWENDDKTGSLVWAGDTYWRISERWGLRGGIQYDTRLDNVATSNSSIEYRRDEDRLVQLNYRYASPEYIQATLPKYYSTAEQYKNGISQVGAVASWPIADRWSIVGAYYYDTNANKQADSMLGVQYSSCCYAIRVGYERKLNGWDNDKQHAVYDNAIGFNIELRGLSSNYGLGTQEMLRSNILPYQNTL
partner: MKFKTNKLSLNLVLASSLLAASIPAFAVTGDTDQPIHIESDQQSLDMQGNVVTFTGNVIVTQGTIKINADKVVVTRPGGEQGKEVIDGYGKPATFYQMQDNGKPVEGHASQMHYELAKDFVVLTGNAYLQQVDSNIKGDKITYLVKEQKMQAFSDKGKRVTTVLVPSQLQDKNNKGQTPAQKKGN

Variants of B1 are the subject of this test. The note with it: with lpta_ecoli lptA.
Consider C724S;C725S, for which the “effect of a mutation on the interaction” value was “disrupting interaction”. Next, C31S;C173S: “disrupting interaction”; C31S;C725S: “disrupting interaction”.
